Measurements reported in the supplement of paper PMC10567573.

B1: HMOX1 (parent)
chain: YHIYVALEEEIERNKESPVFAPVY

Variants of: B1
Assay: protein stability index of a GFP-peptide fusion (GPS, HEK-293T) (PSI 1-6); higher = more stable
Settings: c terminus: a fixed tail appended
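Further: lentivirally expressed fusions sorted by FACS into six bins by GFP to DsRed ratio, PSI derived from sequencing read proportions per bin multiplied by bin number.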

Variant	protein stability index
YHIYVALEEEEERNKESPVFAPVY	1.89
YHIYVALEEEFERNKESPVFAPVY	1.6
YHIYVALEEEGERNKESPVFAPVY	2.24
YHIYVALEEEHERNKESPVFAPVY	2.01
YHIYVALEEEKERNKESPVFAPVY	2.05
YHIYVALEEELERNKESPVFAPVY	1.57
YHIYVALEEEMERNKESPVFAPVY	2.16
YHIYVALEEENERNKESPVFAPVY	1.48
YHIYVALEEEPERNKESPVFAPVY	2.07
YHIYVALEEEQERNKESPVFAPVY	2.01
YHIYVALEEERERNKESPVFAPVY	1.56
YHIYVALEEESERNKESPVFAPVY	2.15
YHIYVALEEETERNKESPVFAPVY	1.54
YHIYVALEEEVERNKESPVFAPVY	1.84
YHIYVALEEEWERNKESPVFAPVY	2.18
YHIYVALEEEYERNKESPVFAPVY	2.21
YHIYVALEEEIARNKESPVFAPVY	1.68
YHIYVALEEEICRNKESPVFAPVY	1.52
YHIYVALEEEIDRNKESPVFAPVY	1.43
YHIYVALEEEIFRNKESPVFAPVY	2.35
YHIYVALEEEIGRNKESPVFAPVY	3.07
YHIYVALEEEIHRNKESPVFAPVY	1.58
YHIYVALEEEIIRNKESPVFAPVY	1.45
YHIYVALEEEIKRNKESPVFAPVY	1.94

Variant	protein stability index
YHIYVALEEEILRNKESPVFAPVY	1.83
YHIYVALEEEIMRNKESPVFAPVY	1.2
YHIYVALEEEINRNKESPVFAPVY	2.29
YHIYVALEEEIPRNKESPVFAPVY	3.7
YHIYVALEEEIQRNKESPVFAPVY	1.95
YHIYVALEEEIRRNKESPVFAPVY	1.62
YHIYVALEEEISRNKESPVFAPVY	2.42
YHIYVALEEEITRNKESPVFAPVY	1.85
YHIYVALEEEIVRNKESPVFAPVY	1.93
YHIYVALEEEIWRNKESPVFAPVY	2.27
YHIYVALEEEIEANKESPVFAPVY	1.34
YHIYVALEEEIECNKESPVFAPVY	1.39
YHIYVALEEEIEDNKESPVFAPVY	1.52
YHIYVALEEEIEENKESPVFAPVY	1.34
YHIYVALEEEIEFNKESPVFAPVY	2.97
YHIYVALEEEIEGNKESPVFAPVY	1.55
YHIYVALEEEIEHNKESPVFAPVY	1.75
YHIYVALEEEIEINKESPVFAPVY	2.02
YHIYVALEEEIEKNKESPVFAPVY	2.14
YHIYVALEEEIELNKESPVFAPVY	1.22
YHIYVALEEEIEMNKESPVFAPVY	1.4
YHIYVALEEEIENNKESPVFAPVY	1.23
YHIYVALEEEIEPNKESPVFAPVY	2.11
YHIYVALEEEIEQNKESPVFAPVY	1.54

Variant	protein stability index
YHIYVALEEEIESNKESPVFAPVY	2.23
YHIYVALEEEIETNKESPVFAPVY	1.19
YHIYVALEEEIEVNKESPVFAPVY	2.02
YHIYVALEEEIEWNKESPVFAPVY	2.25
YHIYVALEEEIERAKESPVFAPVY	1.72
YHIYVALEEEIERCKESPVFAPVY	1.32
YHIYVALEEEIERDKESPVFAPVY	2.06
YHIYVALEEEIEREKESPVFAPVY	1.98
YHIYVALEEEIERFKESPVFAPVY	2.15
YHIYVALEEEIERGKESPVFAPVY	1.98
YHIYVALEEEIERHKESPVFAPVY	2.14
YHIYVALEEEIERIKESPVFAPVY	1.26
YHIYVALEEEIERKKESPVFAPVY	2.12
YHIYVALEEEIERLKESPVFAPVY	2.05
YHIYVALEEEIERMKESPVFAPVY	2.31
YHIYVALEEEIERQKESPVFAPVY	2.62
YHIYVALEEEIERRKESPVFAPVY	2.32
YHIYVALEEEIERSKESPVFAPVY	2.54
YHIYVALEEEIERTKESPVFAPVY	2.81
YHIYVALEEEIERVKESPVFAPVY	1.49
YHIYVALEEEIERYKESPVFAPVY	1.45
YHIYVALEEEIERNAESPVFAPVY	2.92
YHIYVALEEEIERNCESPVFAPVY	2.2
YHIYVALEEEIERNDESPVFAPVY	1.57

Variant	protein stability index
YHIYVALEEEIERNEESPVFAPVY	1.37
YHIYVALEEEIERNFESPVFAPVY	2.13
YHIYVALEEEIERNGESPVFAPVY	1.9
YHIYVALEEEIERNHESPVFAPVY	1.42
YHIYVALEEEIERNIESPVFAPVY	1.87
YHIYVALEEEIERNLESPVFAPVY	2.22
YHIYVALEEEIERNNESPVFAPVY	1.7
YHIYVALEEEIERNPESPVFAPVY	1.53
YHIYVALEEEIERNQESPVFAPVY	2.59
YHIYVALEEEIERNRESPVFAPVY	1.38
YHIYVALEEEIERNSESPVFAPVY	1.98
YHIYVALEEEIERNTESPVFAPVY	1.36
YHIYVALEEEIERNVESPVFAPVY	1.83
YHIYVALEEEIERNWESPVFAPVY	2.21
YHIYVALEEEIERNYESPVFAPVY	2.13
YHIYVALEEEIERNKASPVFAPVY	2.67
YHIYVALEEEIERNKCSPVFAPVY	1.57
YHIYVALEEEIERNKDSPVFAPVY	1.59
YHIYVALEEEIERNKFSPVFAPVY	2.84
YHIYVALEEEIERNKGSPVFAPVY	2.04
YHIYVALEEEIERNKHSPVFAPVY	2.08
YHIYVALEEEIERNKISPVFAPVY	1.42
YHIYVALEEEIERNKKSPVFAPVY	2.13
YHIYVALEEEIERNKLSPVFAPVY	2.32

Variant	protein stability index
YHIYVALEEEIERNKMSPVFAPVY	1.8
YHIYVALEEEIERNKNSPVFAPVY	2.25
YHIYVALEEEIERNKPSPVFAPVY	2.23
YHIYVALEEEIERNKQSPVFAPVY	2.11
YHIYVALEEEIERNKRSPVFAPVY	1.8
YHIYVALEEEIERNKSSPVFAPVY	2.04
YHIYVALEEEIERNKTSPVFAPVY	2.12
YHIYVALEEEIERNKVSPVFAPVY	2.14
YHIYVALEEEIERNKWSPVFAPVY	2.14
YHIYVALEEEIERNKYSPVFAPVY	1.88
YHIYVALEEEIERNKEAPVFAPVY	2.27
YHIYVALEEEIERNKECPVFAPVY	1.86
YHIYVALEEEIERNKEDPVFAPVY	2.3
YHIYVALEEEIERNKEEPVFAPVY	1.85
YHIYVALEEEIERNKEFPVFAPVY	1.88
YHIYVALEEEIERNKEGPVFAPVY	2.29
YHIYVALEEEIERNKEHPVFAPVY	1.83
YHIYVALEEEIERNKEIPVFAPVY	2.46
YHIYVALEEEIERNKEKPVFAPVY	2.14
YHIYVALEEEIERNKELPVFAPVY	2.19
YHIYVALEEEIERNKEMPVFAPVY	1.93
YHIYVALEEEIERNKENPVFAPVY	2.05
YHIYVALEEEIERNKEPPVFAPVY	2.02
YHIYVALEEEIERNKEQPVFAPVY	1.57

Variant	protein stability index
YHIYVALEEEIERNKERPVFAPVY	2.2
YHIYVALEEEIERNKETPVFAPVY	1.69
YHIYVALEEEIERNKEVPVFAPVY	1.65
YHIYVALEEEIERNKEWPVFAPVY	2.65
YHIYVALEEEIERNKEYPVFAPVY	1.26
YHIYVALEEEIERNKESAVFAPVY	2.14
YHIYVALEEEIERNKESCVFAPVY	1.85
YHIYVALEEEIERNKESDVFAPVY	2.3
YHIYVALEEEIERNKESEVFAPVY	2.59
YHIYVALEEEIERNKESFVFAPVY	1.79
YHIYVALEEEIERNKESGVFAPVY	2.46
YHIYVALEEEIERNKESHVFAPVY	2.23
YHIYVALEEEIERNKESIVFAPVY	1.49
YHIYVALEEEIERNKESKVFAPVY	2.03
YHIYVALEEEIERNKESLVFAPVY	1.53
YHIYVALEEEIERNKESMVFAPVY	1.75
YHIYVALEEEIERNKESNVFAPVY	2.36
YHIYVALEEEIERNKESQVFAPVY	1.61
YHIYVALEEEIERNKESRVFAPVY	1.98
YHIYVALEEEIERNKESSVFAPVY	2.13
YHIYVALEEEIERNKESTVFAPVY	2.06
YHIYVALEEEIERNKESVVFAPVY	1.59
YHIYVALEEEIERNKESWVFAPVY	2.31
YHIYVALEEEIERNKESYVFAPVY	1.89

Variant	protein stability index
YHIYVALEEEIERNKESPAFAPVY	2.3
YHIYVALEEEIERNKESPCFAPVY	1.81
YHIYVALEEEIERNKESPDFAPVY	2.7
YHIYVALEEEIERNKESPEFAPVY	2.93
YHIYVALEEEIERNKESPFFAPVY	1.84
YHIYVALEEEIERNKESPGFAPVY	2.37
YHIYVALEEEIERNKESPHFAPVY	2.13
YHIYVALEEEIERNKESPIFAPVY	1.72
YHIYVALEEEIERNKESPKFAPVY	1.99
YHIYVALEEEIERNKESPLFAPVY	1.7
YHIYVALEEEIERNKESPMFAPVY	2.24
YHIYVALEEEIERNKESPNFAPVY	2.69
YHIYVALEEEIERNKESPPFAPVY	2.35
YHIYVALEEEIERNKESPQFAPVY	2.14
YHIYVALEEEIERNKESPRFAPVY	3.44
YHIYVALEEEIERNKESPSFAPVY	2.15
YHIYVALEEEIERNKESPTFAPVY	2.32
YHIYVALEEEIERNKESPWFAPVY	1.57
YHIYVALEEEIERNKESPYFAPVY	1.46
YHIYVALEEEIERNKESPVAAPVY	2.41
YHIYVALEEEIERNKESPVCAPVY	3.24
YHIYVALEEEIERNKESPVDAPVY	2.95
YHIYVALEEEIERNKESPVEAPVY	2.52
YHIYVALEEEIERNKESPVGAPVY	3.15

Variant	protein stability index
YHIYVALEEEIERNKESPVHAPVY	2.47
YHIYVALEEEIERNKESPVIAPVY	2.25
YHIYVALEEEIERNKESPVKAPVY	2.27
YHIYVALEEEIERNKESPVLAPVY	2.66
YHIYVALEEEIERNKESPVMAPVY	2.81
YHIYVALEEEIERNKESPVNAPVY	2.78
YHIYVALEEEIERNKESPVPAPVY	2.82
YHIYVALEEEIERNKESPVQAPVY	2.42
YHIYVALEEEIERNKESPVRAPVY	2.95
YHIYVALEEEIERNKESPVSAPVY	2.78
YHIYVALEEEIERNKESPVTAPVY	2.57
YHIYVALEEEIERNKESPVVAPVY	3.06
YHIYVALEEEIERNKESPVWAPVY	2.41
YHIYVALEEEIERNKESPVYAPVY	2.19
YHIYVALEEEIERNKESPVFCPVY	1.72
YHIYVALEEEIERNKESPVFDPVY	2.91
YHIYVALEEEIERNKESPVFEPVY	2.41
YHIYVALEEEIERNKESPVFFPVY	2.21
YHIYVALEEEIERNKESPVFGPVY	2.43
YHIYVALEEEIERNKESPVFHPVY	2.06
